From paper PMC11362571, “Multistage protective anti-CelTOS monoclonal antibodies with cross-species sterile protection against malaria” (Nature Communications, 2024) come the findings set out here.

Several values for one entry are separate records, joined by “and”; a condition that tells them apart may be missing. Equal entries are not always repeated.

Data set [1] deals with the molecule itself. The data set is described as follows: crystal structure; PvCelTOS with 7g7 Fab at a 1:1 ratio, complex purified by SEC; crystals at 17 °C, 0.1 M sodium acetate pH 4.5, 15% PEG 4000; 3.2 Å. (SEC sorts molecules by how far they enter the pores of the column.)
Data set [2] deals with the molecule itself. The data set is described as follows: crystal structure; PfCelTOS with 4h12 Fab at a ratio of 1.5:1, complex purified by SEC; crystals at 18 °C, 0.2 M lithium acetate, 21% PEG 3350; 3.5 Å.
Data set [3] deals with T1, P. vivax CelTOS (cell-traversal protein for ookinetes and sporozoites), Sal-1, residues L36-D196 (Plasmodium vivax Sal-1).
T1 construct: PvCelTOS, P. vivax Sal-1, PVX_123510, residues L36-D196; also called PvCelTOS; source: E. coli BL21(DE3), pET28, purified (nickel resin, Superdex 200 increase)
T1 chain: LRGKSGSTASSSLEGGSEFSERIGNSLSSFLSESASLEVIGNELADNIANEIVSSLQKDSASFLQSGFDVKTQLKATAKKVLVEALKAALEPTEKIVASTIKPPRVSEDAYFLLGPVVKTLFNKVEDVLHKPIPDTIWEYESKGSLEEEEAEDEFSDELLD
Nature of the data set: BLI; mAb immobilised on anti-mouse IgG Fc capture (AMC) biosensors, 25 °C; CelTOS serially diluted in HBS-EP+ buffer as analyte; OctetRed96e; global fit, 1:1 model; each biological replicate the average of three repeats. The conditions noted are these: both partners purified. (In general: BLI is a label-free optical method that tracks binding on a fibre tip over time.)

The target in data set [4] is T2, P. falciparum CelTOS (cell-traversal protein for ookinetes and sporozoites), 3D7, residues F25-D182 (Plasmodium falciparum 3D7).
T2 construct: PfCelTOS, P. falciparum 3D7, PF3D7_1216600, residues F25-D182; also called PfCelTOS; source: E. coli BL21(DE3), pET28, purified (nickel resin, Superdex 200 increase)
T2 chain: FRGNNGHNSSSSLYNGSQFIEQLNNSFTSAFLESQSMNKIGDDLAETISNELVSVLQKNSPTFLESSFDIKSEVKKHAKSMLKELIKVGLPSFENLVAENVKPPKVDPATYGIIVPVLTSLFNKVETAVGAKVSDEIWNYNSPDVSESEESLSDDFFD
The data set is described as above. The conditions noted are these: both partners purified.

For data set [5], the target named is T3, P. vivax CelTOS (Sal-1, PVX_123510, residue L36-D196) (P. vivax, UniProt A5JZX5).
T3 construct: Cell-traversal protein for ookinetes and sporozoites (CelTOS), P. vivax Sal-1, PVX_123510, residues L36-D196; also called PvCelTOS; cell-traversal protein for ookinetes and sporozoites; source: E. coli BL21(DE3), pET28, purified (Ni resin, Superdex 200 increase)
Nature of the data set: BLI; mAb immobilised on anti-mouse IgG Fc capture (AMC) biosensors at 25 °C; CelTOS serially diluted in HBS-EP+ buffer; global fit, 1:1 model. The conditions noted are these: both partners purified.

For data set [6], the target named is T4, P. falciparum CelTOS (3D7, PF3D7_1216600, residue F25-D182) (P. falciparum, UniProt Q8I5P1).
T4 construct: Cell-traversal protein for ookinetes and sporozoites (CelTOS), P. falciparum 3D7, PF3D7_1216600, residues F25-D182; Only S60-S116 are ordered in PDB 8UKH; also called PfCelTOS; cell-traversal protein for ookinetes and sporozoites; source: E. coli BL21(DE3), pET28, purified (Ni resin, Superdex 200 increase)
The data set is described as above. To be noted: both partners purified.

B1: P. vivax CelTOS (Sal-1, PVX_123510, residue L36-D196) (natural protein, UniProt A5JZX5 36-196, looked up)
chain: LRGKSGSTASSSLEGGSEFSERIGNSLSSFLSESASLEVIGNELADNIANEIVSSLQKDSASFLQSGFDVKTQLKATAKKVLVEALKAALEPTEKIVASTIKPPRVSEDAYFLLGPVVKTLFNKVEDVLHKPIPDTIWEYESKGSLEEEEAEDEFSDELLD
notes: Cell-traversal protein for ookinetes and sporozoites (CelTOS), P. vivax Sal-1, PVX_123510, residues L36-D196; also called PvCelTOS; cell-traversal protein for ookinetes and sporozoites; source: E. coli BL21(DE3), pET28, purified (Ni resin, Superdex 200 increase)
Usually stoichiometry N stands for the number of molecules, sites or subunits per partner or assembly. Consider B1, for which the “stoichiometry N” value in data set [1] stood at 2.

B2: P. falciparum CelTOS (3D7, PF3D7_1216600, residue F25-D182) (natural protein, UniProt Q8I5P1 25-182, looked up)
chain: FRGNNGHNSSSSLYNGSQFIEQLNNSFTSAFLESQSMNKIGDDLAETISNELVSVLQKNSPTFLESSFDIKSEVKKHAKSMLKELIKVGLPSFENLVAENVKPPKVDPATYGIIVPVLTSLFNKVETAVGAKVSDEIWNYNSPDVSESEESLSDDFFD
notes: Cell-traversal protein for ookinetes and sporozoites (CelTOS), P. falciparum 3D7, PF3D7_1216600, residues F25-D182; Only S60-S116 are ordered in PDB 8UKH; also called PfCelTOS; cell-traversal protein for ookinetes and sporozoites; source: E. coli BL21(DE3), pET28, purified (Ni resin, Superdex 200 increase)
On to B2, for which, in data set [2], the “stoichiometry N” value was 2.

B3: anti-CelTOS monoclonal antibody 7g7 (mouse IgG1) (antibody, V domains shown)
VH: EIQLQQSGPELVKPGASVKVSCKASGYSFTDYNMYWVKQSHGKSLEWIGYIDPYNGGTRYNQKFRDKATLTVDKSSSTAFMHLNSLTSEDSAVYYCARGYYYGNPLHFDVWGAGTTVTVSS
VL: QIVLTQSPAIMSASPGEKVTMTCSASSSVSYIHWYQQKSGTSPKRWIYDTSKLASGVPARFSGSGSGTSYSLTISSMEAEDAATYYCQQWISYPATFGAGTKLELK
notes: 7g7 heavy chain variable region; mouse IgG1 heavy chain constant region (IgG1 subclass by isotyping ELISA); 7g7 light chain variable region; light chain constant region; the light chain of the Fab is in PDB 8ULF; IgG1; raised in mice immunised with PvCelTOS; also called 7g7 mAb; 7g7 IgG; source: hybridoma culture, purified (Protein A resin)
As usually defined, the Kd is the concentration at which binding is half-saturated. What is called koff is the first-order rate constant of dissociation. A low value points to a long-lived complex. One may read the kon as the second-order rate constant of association. In the case of B3, in data set [3], the dissociation constant (Kd) is 0.0585 µM and 0.0395 µM and 0.0542 µM; the dissociation rate constant (koff) was 0.00309 s⁻¹ and 0.00368 s⁻¹ and 0.00227 s⁻¹ and 0.00332 s⁻¹; the kon is 60200 M⁻¹ s⁻¹ and 62300 M⁻¹ s⁻¹ and 57000 M⁻¹ s⁻¹ and 61300 M⁻¹ s⁻¹. Further, in data set [4], the equilibrium dissociation constant (Kd) is 470 nM and 480 nM and 500 nM; the koff was 0.00279 s⁻¹ and 0.00293 s⁻¹ and 0.00281 s⁻¹ and 0.00284 s⁻¹; the kon is 5900 M⁻¹ s⁻¹ and 6000 M⁻¹ s⁻¹ and 5600 M⁻¹ s⁻¹ and 5800 M⁻¹ s⁻¹.

B4: monoclonal antibody 7g7 (IgG) (antibody, V domains shown)
VH: EIQLQQSGPELVKPGASVKVSCKASGYSFTDYNMYWVKQSHGKSLEWIGYIDPYNGGTRYNQKFRDKATLTVDKSSSTAFMHLNSLTSEDSAVYYCARGYYYGNPLHFDVWGAGTTVTVSS
VL: QIVLTQSPAIMSASPGEKVTMTCSASSSVSYIHWYQQKSGTSPKRWIYDTSKLASGVPARFSGSGSGTSYSLTISSMEAEDAATYYCQQWISYPATFGAGTKLELK
notes: the Fab part of the heavy chain is in PDB 8ULF; mouse IgG1; the light chain is in PDB 8ULF; IgG1; raised by immunising mice with PvCelTOS; also called 7g7 mAb; source: mouse hybridoma supernatant, purified (protein A); copies: 2 + 2
Regarding B4, the Kd in data set [5] is 0.0507 µM; in data set [6], 480 nM.

B5: anti-CelTOS monoclonal antibody 4h12 (mouse IgG1) (antibody, V domains shown)
VH: QVQLQQSGPELVKPGASVKISCKASGYALSSSWLNWVKQRPGQGLEWIGRIFPGDGDTNYNGKFKGKATLTADKSSSTAYLQLSSLTSVDSAVYFCARGGTVVFDYWGQGTTLTVSS
VL: DIVMTQSHKFMSTSVGDRVNITCKASQDVGIAVAWYQQRPGQSPKLLIYWASKRHTGVHDRFTGTGSGTDFTLTISTVQSEDLADYFCQQYSNSLTFGAGTTLELS
notes: 4h12 heavy chain variable region; mouse IgG1 heavy chain constant region (IgG1 subclass by isotyping ELISA); 4h12 light chain variable region; light chain constant region; the light chain of the Fab is in PDB 8UKH; IgG1; raised in mice immunised with PfCelTOS; also called 4h12 mAb; 4h12 IgG; source: hybridoma culture, purified (Protein A resin)
Take B5: in data set [3], the Kd was 41.6 µM and 57.5 µM and 56.3 µM; the koff was 0.0411 s⁻¹ and 0.0511 s⁻¹ and 0.0549 s⁻¹ and 0.0491 s⁻¹; the on-rate constant (kon) was 1100 M⁻¹ s⁻¹ and 900 M⁻¹ s⁻¹ and 1000 M⁻¹ s⁻¹. In data set [4], the Kd is 65.9 nM and 68 nM and 62.3 nM; the koff is 0.00569 s⁻¹ and 0.00609 s⁻¹ and 0.00521 s⁻¹ and 0.00566 s⁻¹; the kon was 86300 M⁻¹ s⁻¹ and 89700 M⁻¹ s⁻¹ and 84700 M⁻¹ s⁻¹ and 86900 M⁻¹ s⁻¹.

B6: monoclonal antibody 4h12 (IgG) (antibody, V domains shown)
VH: QVQLQQSGPELVKPGASVKISCKASGYALSSSWLNWVKQRPGQGLEWIGRIFPGDGDTNYNGKFKGKATLTADKSSSTAYLQLSSLTSVDSAVYFCARGGTVVFDYWGQGTTLTVSS
VL: DIVMTQSHKFMSTSVGDRVNITCKASQDVGIAVAWYQQRPGQSPKLLIYWASKRHTGVHDRFTGTGSGTDFTLTISTVQSEDLADYFCQQYSNSLTFGAGTTLELS
notes: the Fab part of the heavy chain is in PDB 8UKH; mouse IgG1; the light chain is in PDB 8UKH; IgG1; raised by immunising mice with PfCelTOS; also called 4h12 mAb; source: mouse hybridoma supernatant, purified (protein A); copies: 2 + 2
As to B6, the dissociation constant Kd in data set [5] stood at 51.8 µM; in data set [6], 65.4 nM.
